Trypsin inhibition activity (hydrolysis of TAME by trypsin followed data for one substance are collected here from patent US20060154340A1.

In this assay the target is trypsin. As to the kind of experiment: cell-based or functional assay.

As to “TrxA-PI2JO fusion protein (thioredoxin fused to potato proteinase inhibitor II isomer PI2JO, from plasmid pKBEPI-5 in E. coli BL21trxB(DE3)) (from UniProt P0AA25 1-109)”, the Trypsin inhibition activity (hydrolysis of TAME by trypsin followed at 247 nm; one unit = amount causing 50% inhibition of trypsin) (Trypsin-Inhibition-Unit/mL) worked out at 1390.
